Data taken from the supplement of paper PMC10567573.

B1: ZBED2 (parent)
chain: RAGHHPNQYATCRLCGRQVSRGPG
B2: SNX8 (parent)
chain: VVLKLFLSFSGSDVQNKLKESAQC

Variants of: B1
Test: protein stability index of a GFP-peptide fusion (GPS, HEK-293T) (PSI 1-6); higher = more stable
Conditions: c terminus: a fixed tail appended
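Further: lentivirally expressed fusions sorted by FACS into six bins by GFP to DsRed ratio, PSI derived from sequencing read proportions per bin multiplied by bin number.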

Protein stability index: each site, then its substitutions
H4: V 2.31, Y 1.24, I 3.21, K 1.56, L 1.78, R 1.12, G 2.21, E 2.16, T 2.78, A 2.76, D 2.09, C 1.84, N 3.52
S20: I 1.48, F 1.79, H 1.76, W 1.59, K 1.88, Q 2.21, C 2.49, T 1.91, M 2.4, D 1.93, P 2.53, E 2.88, V 2.08, R 2.26, G 1.78, L 2.29, N 1.79
C15: G 2.6, R 2.83, Y 1.42, I 1.95, V 2.2, P 3.18, S 2.34, L 1.85, A 1.4, H 1.93, D 3.55, F 1.7, T 3.44, K 3.16, N 2.19
G3: Q 1.75, T 2.19, W 3.31, E 2.06, M 2.52, D 2.58, V 1.64, I 1.55, K 2.66, C 4.01, L 2.27, S 1.57, A 2.29, R 2.09, H 1.25
G16: Y 3.58, D 1.78, S 2.2, W 3.77, N 2.51, P 2.41, H 1.9, C 1.25, Q 1.81, T 1.41, E 2.46, K 1.51
Q18: S 1.23, I 2.23, E 1, N 2.12, A 2.44, H 2.59, G 2.68, P 2.69, F 2.67, Y 2.51, M 2.17, W 1.27
G22: C 3.07, A 2.21
Y9: I 2.06, A 2.33, N 2.33, P 3.34, L 1.6, H 2.28, S 2.72, F 1.67
A2: G 2.1, I 2.15, L 2.19, P 1.73, D 2.08, H 1.78, E 2.33, K 1.54, F 2.36, Y 2.04, M 1.97, N 2.11, Q 1.4, S 2.04
H5: A 2.48, C 1.93, N 2.5, T 1.37, Y 2.37, D 3.27, Q 2.16, K 2.51, F 1.89, G 1.68, M 2.41, L 1.86, E 3.69, I 2.27
R13: V 2.39, S 2.79, M 2.24, F 1.36, D 1.96, W 1.98, I 2.09, H 1.59, Y 2.42, K 2.1, L 1.58, T 2.4, E 1.9, P 3.18, Q 1.04
P6: I 1.45, N 1.72, Y 1.02, R 1.83, F 1.33, S 1.72, G 2.54, D 2.02, H 2.31
R17: H 1.29, T 2.26, N 1.31, K 3.01, A 1.69, C 1.91, D 2.96, S 1.79, I 1.86, V 1.49, L 2.64, Q 1.3, F 1.96, E 1.93
C12: P 2.98, H 2.49, E 3.66, L 2.27, V 2.49, I 2.64, A 3.19, S 3.52, D 2.88, R 3.2, M 2.28, F 1.81, G 3.16, K 2.4, Q 3.12, T 3.19
Q8: G 1.86, P 2.03, K 2.78, I 1.57, Y 1.13, N 1.68, M 1.23, D 3.31, S 1.05, E 3.47, H 1.9, F 2.11
A10: S 2.2, T 2.78, L 2.12, N 1.64, W 1.76, K 1.67, M 1.8, V 1.43, D 1.79, R 1.43, H 2.02, Y 1.34, I 1.43, C 2.67, G 2.12, F 2.67, E 1.6
R21: N 2.88, E 2.45, Q 2.25, Y 1.85, S 1.65, I 2.35, L 2.03, H 2.04, M 1.68, K 1.69, T 1.78, F 1.78, C 2.54
R1: C 3.55, T 2.07, L 1.78, M 1.79, V 1.33, N 2.85, P 1.04, Q 1.5, K 1.68, I 2.13, E 2.53, H 2.13, D 2.57, S 1.86
T11: Y 3.09, M 3.7, K 2.56, F 3.34, I 2.27, E 2.84, S 1.5, L 1.7, R 2.01, N 1.97
N7: F 1.08, L 2.67, M 2.04, R 1.46, S 1.88, E 2.52, K 1.81, A 1.78, Y 2.9, P 1.56
L14: K 2.66, V 1.07, I 1.48, H 1.75, S 1.57, G 2.04, N 1.25, A 1.78, C 2.79, P 1.82, R 2.39, T 1.49, W 2.12, Q 1.15
V19: T 2.22, M 1.48, Q 2.48, G 2.53, C 3.7, N 1.4, Y 2.24, E 1.7, K 3.86, P 1.98, I 1.37, H 3.82, S 1.65, F 2.08

Variants of: B2
Test: as above
Conditions: c terminus: a fixed tail appended

Protein stability index, by site and new letter:
V14: N 1.99, A 2.43
A22: W 3.87, C 2.05, M 3.48, G 3.13, Y 1.93
K4: P 3.99, S 2.38, H 2.6
E20: Q 2.37, N 3.6
S10: N 2.75, R 2.08
C24: P 3.78, N 2.99, Y 3.1
L5: I 2.62, G 1.55
S12: M 1.72, N 2.13, Y 4.07
F6: P 2.29, M 2.48
V1: R 2.71, A 1.96, P 1.85, E 2.47
F9: T 2.41, H 3.85, N 1.66
L3: E 1.57, F 3.59, A 2.34, Q 2.61
V2: K 3.26, D 1.4, L 2.09
S8: W 2.64
G11: Q 1.77, E 3.17, S 2.41, V 3.28
K17: V 2.59
L18: G 4.32, E 2.26
Q23: D 2.27, S 1.46
K19: Q 5.1, P 3.75, N 2.76
S21: M 2.03, F 1.88
Q15: C 4.88
